In test [1] the target is T1, human MAdCAM (human, UniProt Q13477 19-317, limits assumed).
T1 construct: also called huMAdCAM; human MAdCAM-1
T1 sequence (looked up): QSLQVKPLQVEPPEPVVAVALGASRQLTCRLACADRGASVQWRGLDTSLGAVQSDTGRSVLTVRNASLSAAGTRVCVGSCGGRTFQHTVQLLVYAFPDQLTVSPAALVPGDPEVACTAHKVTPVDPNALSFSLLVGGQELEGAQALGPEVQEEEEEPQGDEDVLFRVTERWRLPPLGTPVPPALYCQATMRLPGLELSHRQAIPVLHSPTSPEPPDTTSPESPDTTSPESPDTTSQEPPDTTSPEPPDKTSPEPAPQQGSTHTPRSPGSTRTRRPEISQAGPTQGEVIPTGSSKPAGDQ
The test can be described thus: BLI (Octet), binder on anti-human Fc tips.

For a further test, the target named is T2, mouse MAdCAM (mouse, UniProt Q61826 22-365, limits assumed).
T2 construct: also called mouse MAdCAM-1; muMAdCAM
T2 sequence (looked up): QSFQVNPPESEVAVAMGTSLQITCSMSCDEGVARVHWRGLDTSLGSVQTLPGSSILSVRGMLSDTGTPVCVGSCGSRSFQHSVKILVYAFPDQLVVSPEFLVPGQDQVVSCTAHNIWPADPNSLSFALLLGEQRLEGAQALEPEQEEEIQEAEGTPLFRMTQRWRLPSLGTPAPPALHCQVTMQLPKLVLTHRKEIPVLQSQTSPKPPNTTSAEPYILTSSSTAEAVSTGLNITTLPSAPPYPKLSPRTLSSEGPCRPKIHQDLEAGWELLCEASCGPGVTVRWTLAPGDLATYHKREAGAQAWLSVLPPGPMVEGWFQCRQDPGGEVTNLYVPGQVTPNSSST
The test can be described thus: BLI (Octet), binder on AHC tips. Summed up:
(§1)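 Octet96 RED assay with anti-human IgG Fc biosensors equilibrated 20 minutes in assay buffer. Test article at 10 μg/mL in assay buffer was loaded onto tips for 240 s. Association with MAdCAM lasted 120 s and dissociation in assay buffer 120 s; MAdCAM-1 was a seven-point serial dilution from 200 nM down to 3.13 nM. Kinetic rates and dissociation constant came from a global one-to-one fit in the Octet data analysis software.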

Test [2] concerns the target T1, human MAdCAM. The test can be described thus: BLI (Octet), binder on AHC tips. Summed up: as §1

Where a chain is given by its changes, count along the chain named.

B1: MIAB141 (antibody, V domains shown)
VH: EVQLLESGGGLVQPGGSLRLSCAASGFTFSDFWMHWVRQAPGKGLEWISYISGDSGYTNYADSVKGRFTISRDNSKNTLYLQMNSLRAEDTAVYYCARDRPYYYYMDVWGKGTTVTVSS
VL: DIQMTQSPSSLSASVGDRVTITCRASQSISSYLNWYQQKPGKAPKLLIYAASSLQSGVPSRFSGSGSGTDFTLTISSLQPEDFATYYCQQYKSYPVTFGQGTKVEIK
notes: tested with human Fc
As to B1, in the test with human MAdCAM [1], the binding result was “no binding (tested: 150 nM)”.

B2: MIAB174 (antibody, V domains shown)
VH: B1 VH with F32Y
VL: B1 VL with I29V, S31R, Y32S, N34A
notes: tested with human Fc; also called MIAB174-001
In the test with human MAdCAM [1], B2 showed a Kd of 21.8 nM, an off-rate (koff) of 0.00969 s⁻¹ and an on-rate constant (kon) of 445000 M⁻¹ s⁻¹.

B3: MIAB182 (antibody, V domains shown)
VH: B1 VH with D31S, F32Y, I48V, Y50A, D54S, S55G, Y57S, N59Y
VL: B1 VL with S31R, Y32S, N34A
notes: tested with human Fc; also called MIAB182-001
Regarding B3, in the test with human MAdCAM [1], the Kd came out at 119 nM, the “fold reduction of affinity against PRNT1” value is 10 fold, the koff came to 0.0267 s⁻¹ and the kon stood at 226000 M⁻¹ s⁻¹.

B4: MIAB183 (antibody, V domains shown)
VH: B1 VH with D31S, F32Y, I48V, Y50A, D54S, S55G, Y57S, N59Y
VL: B1 VL with I29V, Y32S, N34A
notes: tested with human Fc; also called MIAB183-001
As to B4, in the test with human MAdCAM [1], binding was characterised by a dissociation constant (Kd) of 362 nM and the “fold reduction of affinity against PRNT1” value came to 20 fold.

B5: MIAB178 (antibody, V domains shown)
VH: B1 VH with D31S, F32Y, Y50A, D54S, Y57S, N59Y
VL: B1 VL with I29V, S31R, Y32S, N34A
notes: tested with human Fc; also called MIAB178-001
Turning to B5, in the test with human MAdCAM [1], binding was characterised by a dissociation constant (Kd) of 519 nM, the koff was found to be 0.22 s⁻¹ and the on-rate constant (kon) was 372000 M⁻¹ s⁻¹.

B6: MIAB175 (antibody, V domains shown)
VH: B1 VH with D31S, F32Y
VL: B1 VL with I29V, S31R, Y32S, N34A
notes: tested with human Fc; also called MIAB175-001
In the test with human MAdCAM [1], B6 had a dissociation constant Kd of 22.6 nM, an off-rate constant (koff) of 0.0106 s⁻¹ and a kon of 471000 M⁻¹ s⁻¹.

B7: MIAB177 (antibody, V domains shown)
VH: B1 VH with I48V, Y50A, D54S, S55G, Y57S, N59Y
VL: B1 VL with I29V, S31R, Y32S, N34A
notes: tested with human Fc; also called MIAB177-001
On to B7, for which, in the test with human MAdCAM [1], the equilibrium dissociation constant (Kd) was determined as 218 nM, the dissociation rate constant (koff) amounted to 0.0851 s⁻¹ and the kon turned out to be 391000 M⁻¹ s⁻¹.

B8: MIAB184 (antibody, V domains shown)
VH: B1 VH with D31S, F32Y, I48V, Y50A, D54S, S55G, Y57S, N59Y
VL: B1 VL with Y32S, N34A
notes: tested with human Fc; also called MIAB184-001
Turning to B8, in the test with human MAdCAM [1], binding was characterised by a dissociation constant (Kd) of 563 nM, the “fold reduction of affinity against PRNT1” value is 40 fold, the koff turned out to be 0.0818 s⁻¹ and the on-rate (kon) amounted to 145000 M⁻¹ s⁻¹.

B9: PMAB19 (bispecific antibody, human IgG1, kappa)
heavy: EVQLLESGGGLVQPGGSLRLSCAASGFTFSNSDMSWVRQAPGKGLEWVSGITISGGSTYYADSVKGRFTISRDNSKNTLYLQMNSLRAEDTAVYYCARGRGGSGWLDYWGQGTLVTVSSASTKGPSVFPLAPSSKSTSGGTAALGCLVKDYFPEPVTVSWNSGALTSGVHTFPAVLQSSGLYSLSSVVTVPSSSLGTQTYICNVNHKPSNTKVDKKVEPKSCDKTHTCPPCPAPEAAGAPSVFLFPPKPKDTLMISRTPEVTCVVVDVSHEDPEVKFNWYVDGVEVHNAKTKPREEQYNSTYRVVSVLTVLHQDWLNGKEYKCKVSNKALPAPIEKTISKAKGQPREPQVYTLPPSREEMTKNQVSLTCLVKGFYPSDIAVEWESNGQPENNYKTTPPVLDSDGSFFLYSKLTVDKSRWQQGNVFSCSVMHEALHNHYTQKSLSLSPGGGGGSGGGGSGGGGSEVQLLESGGGLVQPGGSLRLSCAASGFTFSSFWMHWVRQAPGKGLEWISYISGDSGYTNYADSVKGRFTISRDNSKNTLYLQMNSLRAEDTAVYYCARDRPYYYYMDVWGKGTTVTVSSGGGGSGGGGSGGGGSGGGGSDIQMTQSPSSLSASVGDRVTITCRASQSVSRSLAWYQQKPGKAPKLLIYAASSLQSGVPSRFSGSGSGTDFTLTISSLQPEDFATYYCQQYKSYPVTFGQGTKVEIK
light: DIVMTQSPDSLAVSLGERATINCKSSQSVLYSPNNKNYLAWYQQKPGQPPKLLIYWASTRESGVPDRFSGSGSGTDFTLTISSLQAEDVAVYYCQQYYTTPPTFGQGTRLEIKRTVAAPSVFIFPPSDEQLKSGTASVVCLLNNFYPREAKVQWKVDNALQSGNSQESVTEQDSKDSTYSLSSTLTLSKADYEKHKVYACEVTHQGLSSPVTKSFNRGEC
In the test with mouse MAdCAM, B9 registered a Kd of 112 nM, an off-rate (koff) of 0.0177 s⁻¹, an association rate constant (kon) of 158000 M⁻¹ s⁻¹ and a response of 0.149. In the test with human MAdCAM [2], this molecule had a dissociation constant Kd of 31.2 nM, an off-rate (koff) of 0.0168 s⁻¹ and a kon of 540000 M⁻¹ s⁻¹.

B10: PMAB13 (bispecific antibody, human IgG1, kappa)
heavy: B9 heavy with F495Y, I511V, Y513A, D517S, S518G, Y520S, N522Y, V631I
light: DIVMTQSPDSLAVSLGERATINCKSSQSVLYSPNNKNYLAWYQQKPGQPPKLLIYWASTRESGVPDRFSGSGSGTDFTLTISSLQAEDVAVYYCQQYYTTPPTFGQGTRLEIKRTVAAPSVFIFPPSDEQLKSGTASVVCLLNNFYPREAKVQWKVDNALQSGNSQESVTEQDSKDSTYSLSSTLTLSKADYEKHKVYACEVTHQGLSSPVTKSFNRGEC
In the test with human MAdCAM [2], B10 had an equilibrium dissociation constant (Kd) of 132 nM, an off-rate (koff) of 0.0717 s⁻¹ and an on-rate (kon) of 542000 M⁻¹ s⁻¹.

B11: PMAB51 (bispecific antibody, human IgG1, kappa)
heavy: B9 heavy with S494D, Y568K
light: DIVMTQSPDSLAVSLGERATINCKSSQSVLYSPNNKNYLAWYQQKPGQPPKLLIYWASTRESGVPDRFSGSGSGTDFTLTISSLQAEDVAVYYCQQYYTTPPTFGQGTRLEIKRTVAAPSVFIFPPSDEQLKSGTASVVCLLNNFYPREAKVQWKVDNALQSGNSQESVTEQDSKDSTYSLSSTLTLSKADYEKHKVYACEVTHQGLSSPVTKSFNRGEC
In the test with human MAdCAM [2], B11 displayed a Kd of 93.5 nM, a koff of 0.00952 s⁻¹ and a kon of 115000 M⁻¹ s⁻¹.

B12: PMAB47 (bispecific antibody, human IgG1, kappa)
heavy: B9 heavy with S494D, Y566N
light: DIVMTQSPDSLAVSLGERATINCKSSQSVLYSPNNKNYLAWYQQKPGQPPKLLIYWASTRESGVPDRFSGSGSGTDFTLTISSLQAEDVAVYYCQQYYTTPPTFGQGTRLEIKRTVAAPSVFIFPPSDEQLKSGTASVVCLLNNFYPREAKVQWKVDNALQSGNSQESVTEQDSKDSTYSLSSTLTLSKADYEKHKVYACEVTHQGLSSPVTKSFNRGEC
Regarding B12, in the test with human MAdCAM [2], the affinity, expressed as Kd, was 219 nM; the dissociation rate constant (koff) was found to be 0.072 s⁻¹; the on-rate constant (kon) came to 329000 M⁻¹ s⁻¹.

B13: PMAB38 (bispecific antibody, human IgG1, kappa)
heavy: B9 heavy with S494D, S634Y
light: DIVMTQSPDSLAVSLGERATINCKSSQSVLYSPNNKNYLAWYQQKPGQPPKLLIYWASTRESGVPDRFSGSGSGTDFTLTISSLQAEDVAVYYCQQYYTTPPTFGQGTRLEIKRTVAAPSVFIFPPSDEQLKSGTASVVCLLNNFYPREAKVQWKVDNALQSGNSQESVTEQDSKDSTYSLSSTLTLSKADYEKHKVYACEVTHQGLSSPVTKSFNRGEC
Consider B13, for which, in the test with human MAdCAM [2], the binding result is on record as “no binding (tested: 200 nM (top of the dilution series))”.

B14: PMAB49 (bispecific antibody, human IgG1, kappa)
heavy: B9 heavy with S494D, Y568D
light: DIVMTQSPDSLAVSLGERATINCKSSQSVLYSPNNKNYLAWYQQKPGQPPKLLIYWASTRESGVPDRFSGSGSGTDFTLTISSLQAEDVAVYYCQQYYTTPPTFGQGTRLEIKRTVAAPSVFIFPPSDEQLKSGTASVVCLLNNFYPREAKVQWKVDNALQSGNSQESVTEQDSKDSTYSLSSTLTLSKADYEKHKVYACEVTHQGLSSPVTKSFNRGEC
As to B14, in the test with human MAdCAM [2], the Kd worked out at 142 nM, the koff is 0.0125 s⁻¹ and the on-rate (kon) amounted to 87900 M⁻¹ s⁻¹.

B15: PMAB9 (bispecific antibody, human IgG1, kappa)
heavy: B9 heavy with F495Y, Y513A, D517S, S518G, Y520S, N522Y, V631I
light: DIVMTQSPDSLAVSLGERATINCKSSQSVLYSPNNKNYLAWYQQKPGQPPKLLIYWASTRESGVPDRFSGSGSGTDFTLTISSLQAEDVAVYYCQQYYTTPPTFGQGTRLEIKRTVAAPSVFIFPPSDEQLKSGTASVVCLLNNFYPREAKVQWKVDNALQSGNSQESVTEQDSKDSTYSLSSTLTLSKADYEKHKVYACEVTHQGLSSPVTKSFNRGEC
In the test with human MAdCAM [2], B15 registered an equilibrium dissociation constant (Kd) of 159 nM, a koff of 0.0725 s⁻¹ and an on-rate (kon) of 455000 M⁻¹ s⁻¹.

B16: PMAB10 (bispecific antibody, human IgG1, kappa)
heavy: B9 heavy with F495Y, I511V, Y513A, D517S, S518G, Y520S, N522Y, Y566G, V631I, R633S
light: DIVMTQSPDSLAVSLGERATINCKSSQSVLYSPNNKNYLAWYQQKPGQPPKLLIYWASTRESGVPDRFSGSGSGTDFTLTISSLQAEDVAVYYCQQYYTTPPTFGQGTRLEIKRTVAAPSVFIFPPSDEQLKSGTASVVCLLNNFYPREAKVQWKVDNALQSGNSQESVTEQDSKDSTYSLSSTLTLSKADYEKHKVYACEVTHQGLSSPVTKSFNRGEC
As for B16, in the test with human MAdCAM [2], the equilibrium dissociation constant (Kd) was 146 nM, the koff came to 0.0967 s⁻¹ and the kon was 662000 M⁻¹ s⁻¹.

B17: PMAB43 (bispecific antibody, human IgG1, kappa)
heavy: B9 heavy with S494D, V698R
light: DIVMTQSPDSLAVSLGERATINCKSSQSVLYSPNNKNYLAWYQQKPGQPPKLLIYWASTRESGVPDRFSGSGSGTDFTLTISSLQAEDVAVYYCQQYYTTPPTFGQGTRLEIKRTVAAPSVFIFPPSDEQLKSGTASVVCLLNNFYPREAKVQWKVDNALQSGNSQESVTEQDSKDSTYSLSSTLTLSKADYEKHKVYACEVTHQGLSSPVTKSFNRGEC
With B17, the binding result with human MAdCAM [2] is given as “no binding (tested: 200 nM (top of the dilution series))”.

B18: PMAB46 (bispecific antibody, human IgG1, kappa)
heavy: B9 heavy with S494D, Y566G
light: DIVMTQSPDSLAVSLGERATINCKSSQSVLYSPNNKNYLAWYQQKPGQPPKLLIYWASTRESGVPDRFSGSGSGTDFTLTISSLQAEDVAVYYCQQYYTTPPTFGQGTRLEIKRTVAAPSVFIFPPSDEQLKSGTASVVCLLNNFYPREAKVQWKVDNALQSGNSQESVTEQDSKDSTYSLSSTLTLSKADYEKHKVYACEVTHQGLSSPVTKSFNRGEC
Regarding B18, in the test with human MAdCAM [2], the Kd was determined as 37900 nM, the off-rate constant (koff) was 0.309 s⁻¹ and the kon is 8160 M⁻¹ s⁻¹.

B19: PMAB41 (bispecific antibody, human IgG1, kappa)
heavy: B9 heavy with S494D, K694Y
light: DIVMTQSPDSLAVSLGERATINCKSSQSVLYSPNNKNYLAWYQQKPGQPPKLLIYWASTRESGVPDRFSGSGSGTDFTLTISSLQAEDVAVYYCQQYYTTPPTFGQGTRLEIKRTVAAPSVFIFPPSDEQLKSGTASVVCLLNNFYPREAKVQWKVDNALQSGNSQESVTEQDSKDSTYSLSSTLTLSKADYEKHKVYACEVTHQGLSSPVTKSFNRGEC
With B19, in the test with mouse MAdCAM, the affinity, expressed as Kd, was 119 nM; the off-rate (koff) stood at 0.0246 s⁻¹; the kon worked out at 208000 M⁻¹ s⁻¹; the response was found to be 0.189.

B20: PMAB11 (bispecific antibody, human IgG1, kappa)
heavy: B9 heavy with F495Y, I511V, Y513A, D517S, S518G, Y520S, N522Y, V631I, R633S
light: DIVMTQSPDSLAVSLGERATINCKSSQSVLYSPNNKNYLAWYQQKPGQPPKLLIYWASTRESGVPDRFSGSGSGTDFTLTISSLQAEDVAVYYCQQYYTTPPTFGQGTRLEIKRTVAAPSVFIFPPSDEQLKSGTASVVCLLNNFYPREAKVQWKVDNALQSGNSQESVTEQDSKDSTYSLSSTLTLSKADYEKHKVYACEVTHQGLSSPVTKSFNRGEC
For the molecule B20, in the test with human MAdCAM [2], the Kd amounted to 466 nM, the off-rate constant (koff) is 0.195 s⁻¹ and the on-rate (kon) came to 419000 M⁻¹ s⁻¹.

B21: PMAB21 (bispecific antibody, human IgG1, kappa)
heavy: B9 heavy with S494D, W496A
light: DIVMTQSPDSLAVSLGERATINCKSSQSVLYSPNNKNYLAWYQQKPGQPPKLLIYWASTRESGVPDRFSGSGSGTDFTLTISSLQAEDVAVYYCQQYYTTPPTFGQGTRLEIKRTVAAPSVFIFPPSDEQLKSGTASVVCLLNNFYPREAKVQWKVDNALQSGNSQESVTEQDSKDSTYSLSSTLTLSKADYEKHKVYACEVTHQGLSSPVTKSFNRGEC
As for B21, in the test with human MAdCAM [2], the binding result is “no binding (tested: 300 nM (top of the dilution series))”.

B22: PMAB12 (bispecific antibody, human IgG1, kappa)
heavy: B9 heavy with F495Y, I511V, Y513A, D517S, S518G, Y520S, N522Y, Y566G, V631I
light: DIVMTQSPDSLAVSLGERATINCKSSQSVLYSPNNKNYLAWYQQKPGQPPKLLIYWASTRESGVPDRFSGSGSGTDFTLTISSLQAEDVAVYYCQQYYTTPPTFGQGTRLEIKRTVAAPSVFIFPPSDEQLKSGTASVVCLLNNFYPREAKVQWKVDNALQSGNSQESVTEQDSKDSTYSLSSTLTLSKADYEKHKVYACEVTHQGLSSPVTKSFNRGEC
Consider B22, for which, in the test with human MAdCAM [2], the Kd was 63.3 nM, the koff came to 0.0464 s⁻¹ and the kon amounted to 733000 M⁻¹ s⁻¹.

B23: PMAB39 (bispecific antibody, human IgG1, kappa)
heavy: B9 heavy with S494D, A636N
light: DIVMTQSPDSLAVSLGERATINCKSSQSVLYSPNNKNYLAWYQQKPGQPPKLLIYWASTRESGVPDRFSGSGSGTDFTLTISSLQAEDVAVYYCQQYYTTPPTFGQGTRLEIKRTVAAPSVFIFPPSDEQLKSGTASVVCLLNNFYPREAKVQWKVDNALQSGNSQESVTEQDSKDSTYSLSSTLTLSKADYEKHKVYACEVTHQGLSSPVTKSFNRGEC
Turning to B23, the binding result with human MAdCAM [2] is given as “no binding (tested: 200 nM (top of the dilution series))”.

The values are drawn from patent publication US20240010722A1 (published 2024).
